Assay results as given in patent publication WO2018095932A1 (dated 2018).
Each block holds one binder with its values, some of them ahead of it.

Key:
[1] = target: T1, human FGFR1b-IIIc extracellular domain with a His tag (human, UniProt P11362 22-376); assay: ELISA, IgG1 format
T1 construct: also called huFGFR1b-IIIc; FGFR1-IIIc
T1 sequence: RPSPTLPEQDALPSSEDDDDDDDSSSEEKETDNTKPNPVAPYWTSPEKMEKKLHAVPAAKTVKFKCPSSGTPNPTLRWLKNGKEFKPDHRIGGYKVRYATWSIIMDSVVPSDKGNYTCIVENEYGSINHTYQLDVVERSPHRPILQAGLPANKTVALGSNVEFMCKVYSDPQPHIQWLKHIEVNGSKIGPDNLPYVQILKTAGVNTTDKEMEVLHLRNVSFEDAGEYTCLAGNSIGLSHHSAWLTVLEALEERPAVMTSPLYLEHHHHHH

[2] = target: T2, human FGFR1b-IIIb extracellular domain with a His tag (human); assay: ELISA, IgG1 format
T2 construct: also called huFGFR1b-IIIb; FGFR1-IIIb
T2 chain: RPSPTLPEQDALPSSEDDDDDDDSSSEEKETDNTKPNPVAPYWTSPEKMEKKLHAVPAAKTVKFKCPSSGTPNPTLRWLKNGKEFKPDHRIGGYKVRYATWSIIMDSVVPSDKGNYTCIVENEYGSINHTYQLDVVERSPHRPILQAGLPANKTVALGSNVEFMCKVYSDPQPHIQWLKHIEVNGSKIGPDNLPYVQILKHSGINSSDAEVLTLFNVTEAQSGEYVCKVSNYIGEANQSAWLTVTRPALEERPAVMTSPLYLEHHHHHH

[3] = target: T3, human FGFR1 (FGFR1b-IIIb or FGFR1b-IIIc, not stated which) (human, UniProt P11362 22-376); assay: ELISA on coated human FGFR1b (IIIb or IIIc, not stated which), IgG1 format
T3 chain: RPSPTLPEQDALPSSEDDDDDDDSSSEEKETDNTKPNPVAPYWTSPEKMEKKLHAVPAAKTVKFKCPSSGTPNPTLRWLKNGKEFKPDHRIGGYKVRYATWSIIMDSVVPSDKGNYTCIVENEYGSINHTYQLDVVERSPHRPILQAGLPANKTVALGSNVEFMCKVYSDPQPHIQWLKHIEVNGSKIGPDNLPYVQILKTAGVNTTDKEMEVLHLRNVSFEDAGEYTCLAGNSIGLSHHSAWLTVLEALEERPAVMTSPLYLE

[4] = target: T3, human FGFR1 (FGFR1b-IIIb or …); assay: ELISA on coated human FGFR1b (IIIb or IIIc, not stated which)
[5] = target: T1, human FGFR1b-IIIc extracellular domain …; assay: SPR (BIAcore 4000), antibody captured by anti-human Fc, His-tagged FGFR1 injected
[6] = target: T2, human FGFR1b-IIIb extracellular domain …; assay: as above
FGFR1 of NCI-H520 cells = FGFR1 of NCI-H520 cells (UniProt P11362 22-822); assay: cell-based or functional assay
Human FGFR1 D2-His6 = target: T4, Human FGFR1 D2-His6 (human, UniProt P11362 22-254); assay: ELISA
T4 construct: also called D2 domain; wild-type D2
T4 sequence: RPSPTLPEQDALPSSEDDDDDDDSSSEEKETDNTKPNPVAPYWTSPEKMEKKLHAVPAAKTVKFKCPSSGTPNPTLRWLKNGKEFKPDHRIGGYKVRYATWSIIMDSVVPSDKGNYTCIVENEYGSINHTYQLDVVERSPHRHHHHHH

[7] = target: T2, human FGFR1b-IIIb extracellular domain …; assay: ELISA

FGFR1 of NCI-H520 cells, sequence (P11362 22-822): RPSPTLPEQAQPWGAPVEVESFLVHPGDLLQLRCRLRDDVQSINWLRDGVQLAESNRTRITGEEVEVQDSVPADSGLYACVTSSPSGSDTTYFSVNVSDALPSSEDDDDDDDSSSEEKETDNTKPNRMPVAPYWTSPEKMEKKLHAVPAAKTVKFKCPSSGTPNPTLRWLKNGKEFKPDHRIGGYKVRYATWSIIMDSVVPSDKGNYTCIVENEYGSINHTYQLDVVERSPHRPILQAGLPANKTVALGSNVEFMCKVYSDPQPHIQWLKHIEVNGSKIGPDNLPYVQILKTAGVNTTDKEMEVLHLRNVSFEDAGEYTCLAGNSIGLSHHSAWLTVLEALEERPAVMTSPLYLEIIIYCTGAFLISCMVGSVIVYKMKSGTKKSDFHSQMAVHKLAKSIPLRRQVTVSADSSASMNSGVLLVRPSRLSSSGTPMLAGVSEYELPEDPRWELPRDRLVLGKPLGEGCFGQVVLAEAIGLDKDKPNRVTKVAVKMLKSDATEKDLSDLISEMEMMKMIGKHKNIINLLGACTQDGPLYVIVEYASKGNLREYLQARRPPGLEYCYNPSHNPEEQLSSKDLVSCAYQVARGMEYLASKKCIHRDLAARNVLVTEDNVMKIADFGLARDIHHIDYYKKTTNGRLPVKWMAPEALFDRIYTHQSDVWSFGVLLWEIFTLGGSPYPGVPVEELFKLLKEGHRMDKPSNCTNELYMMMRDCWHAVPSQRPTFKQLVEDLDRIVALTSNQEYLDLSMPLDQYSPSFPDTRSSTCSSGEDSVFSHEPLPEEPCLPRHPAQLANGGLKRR

EC50 [4]: 0.015 nM
B3: mAb #D01 in the IgG1 format (antibody, V domains shown)
VH: QVQLQESGPGLVKPSGTLSLTCAVSGGSISSNNWWSWVRQPPGKGLEWIGEIYHSGSTSYNPSLKSRVTISVDKSKNQFSLKLSSVTAADTAVYYCARATDWFDHWGQGTLVTVSS
VL: SYVLTQPPSVSVAPGQTARITCGGNNIGSESVHWYQQKPGQAPVLVVYDDSDRPSGIPERFSGSNSGNTATLTISRVEAGDEADYYCQVWDSTSDHRVFGGGTKLTVLG

IC50 of inhibition of FGF1-induced pFGFR1 in NCI-H520 cells (FGFR1 of NCI-H520 cells): 70 nM
IC50 of inhibition of FGF2-induced pFGFR1 in NCI-H520 cells (FGFR1 of NCI-H520 cells): 6 nM
IC50 of inhibition of pFGFR1 in NCI-H520 cells in the absence of ligand (FGFR1 of NCI-H520 cells): 20 nM
fold change of pFGFR1 inhibition IC50, monovalent against bivalent format (FGFR1 of NCI-H520 cells): ~10 fold
B6: monovalent SEEDbody #A08 (antibody)
heavy: EVQLQESGPGLVKPSGTLSLTCAVSGGSISSNNWWSWVRQPPGKGLEWIGEIYHSGSTSYNPSLKSRVTISVDKSKNQFSLKLSSVTAADTAVYYCARGTDWFDPWGQGTLVTVSSASTKGPSVFPLAPSSKSTSGGTAALGCLVKDYFPEPVTVSWNSGALTSGVHTFPAVLQSSGLYSLSSVVTVPSSSLGTQTYICNVNHKPSNTKVDKRVEPKSCDKTHTCPPCPAPELLGGPSVFLFPPKPKDTLMISRTPEVTCVVVDVSHEDPEVKFNWYVDGVEVHNAKTKPREEQYNSTYRVVSVLTVLHQDWLNGKEYKCKVSNKALPAPIEKTISKAKGQPFRPEVHLLPPSREEMTKNQVSLTCLARGFYPKDIAVEWESNGQPENNYKTTPSRQEPSQGTTTFAVTSKLTVDKSRWQQGNVFSCSVMHEALHNHYTQKTISLSPG
chain: EPKSSDKTHTCPPCPAPELLGGPSVFLFPPKPKDTLMISRTPEVTCVVVDVSHEDPEVKFNWYVDGVEVHNAKTKPREEQYNSTYRVVSVLTVLHQDWLNGKEYKCKVSNKALPAPIEKTISKAKGQPREPQVYTLPPPSEELALNELVTLTCLVKGFYPSDIAVEWLQGSQELPREKYLTWAPVLDSDGSFFLYSILRVAAEDWKKGDTFSCSVMHEALHNHYTQKSLDRSPG
light: SYVLTQPPSVSVAPGQTARITCGGNNIGSESVHWYQQKPGQAPVLVVYDDSDRPSGIPERFSGSNSGNTATLTISRVEAGDEADYYCQVWDSTSDHRVFGGGTKLTVLGQPKAAPSVTLFPPSSEELQANKATLVCLISDFYPGAVTVAWKADSSPVKAGVETTTPSKQSNNKYAASSYLSLTPEQWKSHKSYSCQVTHEGSTVEKTVAPTECS

Further lines, the binder ahead of its results:

B1: mAb #A02 in the IgG1 format (antibody, V domains shown)
VH: QVQLQESGPGLVKPSGTLSLTCAVSGGSISSNNWWSWVRQPPGKGLEWIGEIYHSGSTSYNPSLKSRVTISVDKSKNQFSLKLSSVTAADTAVYYCARATDWFDLWGQGTLVTVSS
VL: SYVLTQPPSVSVAPGQTARITCGGNNIGSESVHWYQQKPGQAPVLVVYDDSDRPSGIPERFSGSNSGNTATLTISRVEAGDEADYYCQVWDSTSDHRVFGGGTKLTVL
binding result [1]: binds
binding result [2]: binds

B2: #A08 lead IgG1 antibody (bivalent) (antibody, V domains shown)
VH: EVQLQESGPGLVKPSGTLSLTCAVSGGSISSNNWWSWVRQPPGKGLEWIGEIYHSGSTSYNPSLKSRVTISVDKSKNQFSLKLSSVTAADTAVYYCARGTDWFDPWGQGTLVTVSS
VL: SYVLTQPPSVSVAPGQTARITCGGNNIGSESVHWYQQKPGQAPVLVVYDDSDRPSGIPERFSGSNSGNTATLTISRVEAGDEADYYCQVWDSTSDHRVFGGGTKLTVLG
notes: also called lgG1 (bivalent) format of #A08; #A08 lead-lgG1 m3 antibody
EC50 [3]: 0.008 nM

B4: mAb #A08 (#A08 hit), anti-FGFR1 antibody (antibody, V domains shown)
VH: EVQLQESGPGLVKPSGTLSLTCAVSGGSISSNNWWSWVRQPPGKGLEWIGEIYHSGSTSYNPSLKSRVTISVDKSKNQFSLKLNSVTAADTAVYYCARGTDWFDPWGQGTLVTVSS
VL: QAVLTQPPSVSVAPGQTARITCGGNNIGSESVHWYQQKPGQAPVLVVYDDSDRPSGIPERFSGSNSGNTATLTISRVEAGDEADYYCQVWDSTSDHRVFGGGTKLTVL
notes: also called imAb #A08; clone #A08
Kd [5]: 0.017 nM
Kd [6]: 0.01 nM
IC50 of inhibition of FGF1-induced pFGFR1 in NCI-H520 cells (FGFR1 of NCI-H520 cells): 4 nM
IC50 of inhibition of FGF2-induced pFGFR1 in NCI-H520 cells (FGFR1 of NCI-H520 cells): 0.2 nM

B5: mAb #C01 in the IgG1 format (antibody, V domains shown)
VH: QVQLQESGPGLVKPSGTLSLTCAVSGGSISSNNWWSWVRQPPGKGLEWIGEIYHSGSTSYNPSLKSRVTISVDKSKNQFSLKLSSVTAADTAVYYCARATDWFDAWGQGTLVTVSS
VL: SYVLTQPPSVSVAPGQTARITCGGNNIGSESVHWYQQKPGQAPVLVVYDDSDRPSGIPERFSGSNSGNTATLTISRVEAGDEADYYCQVWDSTSDHRVFGGGTKLTVL
binding result [1]: binds
binding result [2]: binds

B7: mAb #A05 (#A05 hit), anti-FGFR1 antibody (antibody, IgG1, V domains shown)
VH: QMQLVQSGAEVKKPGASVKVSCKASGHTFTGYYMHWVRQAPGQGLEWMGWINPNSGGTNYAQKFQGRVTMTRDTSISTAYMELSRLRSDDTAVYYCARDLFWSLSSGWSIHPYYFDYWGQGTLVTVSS
VL: QSALTQPASVSGSPGQSITISCTGTSSDVGSYNLVSWYQQHPGKAPKLMIYGGSKRPSGVPDRFSGSKSDTSASLTISGLQAEDEADYYCCSYTYNGDVFGTGTKVTVL
notes: also called imAb #A05
Kd [5]: 0.01 nM
IC50 of inhibition of FGF1-induced pFGFR1 in NCI-H520 cells (FGFR1 of NCI-H520 cells): 1 nM
IC50 of inhibition of FGF2-induced pFGFR1 in NCI-H520 cells (FGFR1 of NCI-H520 cells): 1 nM
binding result (Human FGFR1 D2-His6): no binding
binding result [7]: binds
